The target of experiment [1] is T1, 5T4 expressed on CHO cells (UniProt Q13641 32-420, limits assumed).
T1 construct: whole, on cells; also called CHO-5T4; 5T4 expressing CHO cells
T1 sequence (looked up): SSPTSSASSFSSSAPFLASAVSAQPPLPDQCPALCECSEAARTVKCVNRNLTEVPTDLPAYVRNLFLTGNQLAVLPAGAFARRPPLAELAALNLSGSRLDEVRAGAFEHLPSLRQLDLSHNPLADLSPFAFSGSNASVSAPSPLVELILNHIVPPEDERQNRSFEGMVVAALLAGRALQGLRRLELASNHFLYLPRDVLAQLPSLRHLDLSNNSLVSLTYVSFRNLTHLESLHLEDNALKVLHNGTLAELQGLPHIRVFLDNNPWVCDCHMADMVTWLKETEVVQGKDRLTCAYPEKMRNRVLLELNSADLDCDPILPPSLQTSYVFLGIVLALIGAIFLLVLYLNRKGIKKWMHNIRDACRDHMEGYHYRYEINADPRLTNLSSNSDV
In words: flow cytometry on CHO cells expressing 5T4, anti-human IgG Fcg-PE; CHOwt cells as control.
Method: (§1) Binding to respective targets expressed on cells were evaluated using flow cytometry. I brief, CHO cells modified to express 5T4, B16 cells modified to express CD40 as well as the wildtype CHO and B16 cell lines were incubated with titrated concentrations of RUBY™ bsAbs. Binding of the antibodies was detected using fluorochrome-conjugated anti-human IgG and analyzed using flow cytometry.

In experiment [2] the target is T2, CD40 expressed on cells (UniProt P25942 21-277).
T2 construct: whole, on cells; also called B16-CD40; CD40 expressing B16 cells
Put plainly: flow cytometry on B16 cells expressing CD40, anti-human IgG Fcg-PE; B16wt cells as control. For orientation: A flow cytometer gives signals particle by particle.
Method: as §1

Experiment [3] deals with T2, CD40 expressed on cells. The experiment is described as above. The source holds these as a separate data set.
Method: as §1
Experiment [4] deals with T1, 5T4 expressed on CHO cells. In words: flow cytometry on CHO cells expressing 5T4, anti-human IgG Fcg-PE; CHOwt cells as control. This is another data set of the same source.
Method: as §1
For the next experiment, the target named is T3, 5T4 (UniProt Q13641 32-355).
T3 construct: also called 5T4 antigen (dual target ELISA)
T3 sequence (looked up): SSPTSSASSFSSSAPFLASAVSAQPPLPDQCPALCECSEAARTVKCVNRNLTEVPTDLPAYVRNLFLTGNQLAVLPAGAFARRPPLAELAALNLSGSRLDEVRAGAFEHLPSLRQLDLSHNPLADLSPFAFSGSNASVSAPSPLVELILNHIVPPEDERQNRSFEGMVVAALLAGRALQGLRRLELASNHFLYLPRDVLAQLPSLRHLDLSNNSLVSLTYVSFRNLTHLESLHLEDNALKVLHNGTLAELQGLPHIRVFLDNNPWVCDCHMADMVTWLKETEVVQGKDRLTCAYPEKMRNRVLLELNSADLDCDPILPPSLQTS
Put plainly: dual target ELISA (simultaneous 5T4 and CD40).

The target of another experiment is T4, CD40 (UniProt P25942 21-193).
T4 construct: also called biotinylated CD40; CD40 antigen
In words: dual target ELISA (simultaneous 5T4 and CD40). In general terms: In an ELISA, binding on a coated surface is turned into a signal by an enzyme label.

Experiment [5] deals with T2, CD40 expressed on cells. In words: flow cytometry on B16 cells expressing CD40, anti-human IgG Fcg-PE; B16wt cells as control. The source holds these as a separate data set.
Method: as §1

Positions count from the first letter of the chain named. In names and notes the source's numbering stands. Where two headings read alike, the source gives them in different places.

T2 sequence (P25942 21-277 limits assumed): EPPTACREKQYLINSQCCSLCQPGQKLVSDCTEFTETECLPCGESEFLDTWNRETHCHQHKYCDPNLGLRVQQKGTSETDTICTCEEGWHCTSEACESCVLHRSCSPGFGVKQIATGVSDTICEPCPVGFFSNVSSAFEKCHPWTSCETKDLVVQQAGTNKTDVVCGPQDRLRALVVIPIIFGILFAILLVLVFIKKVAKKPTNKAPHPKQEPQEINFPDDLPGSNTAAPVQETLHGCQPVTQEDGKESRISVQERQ
T4 sequence (P25942 21-193 limits assumed): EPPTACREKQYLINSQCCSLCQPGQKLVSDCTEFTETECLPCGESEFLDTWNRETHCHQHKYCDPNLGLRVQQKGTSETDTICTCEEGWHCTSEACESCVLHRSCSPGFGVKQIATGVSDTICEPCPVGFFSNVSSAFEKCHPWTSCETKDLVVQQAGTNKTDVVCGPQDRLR

B1: AC_05332 (bispecific antibody, human IgG1, kappa, L234A L235A)
heavy: not shown
light: DIQMTQSPSSLSASVGDRVTITCRASQSISSYLNWYQEKPGKAPKLLIYAASSLQSGVPSRFSGSGSGTDFTLTISSLQPEDFATYYCQQTYGYLHTFGQGTKLEIKRTVAAPSVFIFPPSDEQLKSGTASVVCYLNNFYPREAKVQWKVDNALQSGNSQESVTEQDSKDSTYSLWSTLTLSKADYEKHKVYACEVTHQGLSSPVTKSFNRGEC
chain: EVQLLESGGGLVQPGGSLRLSCAASGFTFSSYAMSWVREAPGKGLEWVSGIGSYGGGTYYADSVKGRFTISRDNSKNTLYLQMNSLRAEDTAVYYCARYVNFGMDYWGQGTLVTVSSASTKGPSVFPLAPSSKSTSGGTAALGCLVKDYFPEPVTVSWNSGALTSGVHTFPAVLQSSGLYSLSSVVEVPSSSLGTQTYICNVNHKPSNTKVDKKVEPKSC
notes: RUBY format; H1 (role heavy) = IgG heavy chain-linker-Fab light chain, L1 (role light) = IgG light chain, H2 (role chain) = Fab heavy chain; also called parental bsAb AC_05332; 5T4xCD40
Usually EC50 (read off the curve) stands for the concentration at which the effect is half-maximal. Low values mean greater potency, high ones weaker potency. Consider B1, for which the entries for the 50% effective concentration (EC50 (read off the curve)) (in experiment [1]; with CD40 expressed on cells [2]) were ~10 nM and ~5 nM, respectively.

B2: AC_05374 (bispecific antibody, human IgG1, lambda, L234A L235A)
heavy 1: not shown
light: not shown
heavy 2: EVQLLESGGGLVQPGGSLRLSCAASGFTFSSYAMSWVREAPGKGLEWVSAISGSGGSAYYADSVKGRFTISRDNSKNTLYLQMNSLRAEDTAVYYCARYYGGYYSAWMDYWGQGTLVTVSSASTKGPSVFPLAPSSKSTSGGTAALGCLVKDYFPEPVTVSWNSGALTSGVHTFPAVLQSSGLYSLSSVVEVPSSSLGTQTYICNVNHKPSNTKVDKKVEPKSC
notes: AC_05330 with the mutation in the VH of chain H2; also called T65A mutant of AC_05330; copies: 2 + 2 + 2
With B2, in the experiment with CD40 expressed on cells [3], the half-maximal effective concentration (EC50 (read off the curve)) was ~0.5 nM. Besides, the binding result in experiment [4] is given as “no binding (tested: about 700 nM)”; with 5T4 it was “no binding”.

B3: AC_05376 (bispecific antibody)
heavy 1: not shown
light: B1 light with T91Y, Y92G, G93R, Y94N, L95P, H96P
heavy 2: B2 heavy 2 with A58E
notes: AC_05302 with the mutation in the VH of chain H2; also called T65E mutant of AC_05302; copies: 2 + 2 + 2
For the molecule B3, the values for the binding result in the experiment with CD40 and with CD40 expressed on cells [5] were “no binding” and “no binding (tested: about 330 nM)”, respectively.

B4: AC_05375 (bispecific antibody, human IgG1, lambda, L234A L235A)
heavy 1: not shown
light: not shown
heavy 2: B2 heavy 2 with A58I
notes: AC_05330 with the mutation in the VH of chain H2; also called T65I mutant of AC_05330; copies: 2 + 2 + 2
For the molecule B4, the “EC50 (read off the curve)” value in the experiment with CD40 expressed on cells [3] was ~0.4 nM. In addition, the binding result in experiment [4] is given as “no binding (tested: about 700 nM)”; with 5T4, “no binding”.

(Values after US20260001961A1 (ALLIGATOR BIOSCIENCE, published 2026).)
